Consider four sequences from US10765761B2, “Nucleic acid condensing peptide, nucleic acid condensing peptide set, nucleic acid delivery carrier, nucleic acid delivery method, cell production method, cell detection method and kit” (KABUSHIKI KAISHA TOSHIBA, priority 2016, dated 2020).

The subject of series [1] is plasmid vector (pDNA). As to the kind of experiment: Gel retardation assay: condensability and dissociation with M9, Example 11. The series is classed as binding. As for the experimental part:
Each of the peptides was dissolved in 10 mM-HEPES (pH: 5.4) and several peptide solutions having different peptide concentrations were prepared.
For M9, one peptide solution was prepared to have a peptide concentration of: (1) 0.24 mg/ml. For mHP-1 and mHP-2, peptide solutions were prepared to have a peptide concentration of 0.24 mg/ml and a mixture ratio between mHP-1 and mHP-2 of 1:3, and 1 μL of M9 was added to one to prepare a peptide solution (2), and M9 was not added to one to prepare a peptide solution (3). Moreover, the plasmid vector (pDNA) was diluted with purified water to prepare a nucleic acid solution having a pDNA concentration of 0.15 mg/ml. […]
As samples for the condensability evaluation, five sets of 5.5 μL of 10 mM-HEPES (pH: 5.4) were prepared, and 4.5 μL of the respective peptide-nucleic-acid solutions described above were added to prepare mixtures. […] After the electrophoresis, the nucleic acid dyed with ethidium bromide was visualized by UV irradiation, and the nucleic acids condensed by the peptide and the nucleic acid dissociating with the peptide and moving into the gel were detected.
FIG. 15 is a photograph showing the agarose gel subjected to UV irradiation. […] When an integrated band with a large molecular weight, which strongly shines is observed in the left lane, it was evaluated as a high condensability.

For series [2], the system named is plasmid vector (pDNA). As to the kind of experiment: Average particle diameter and Zeta potential of peptide-nucleic-acid complexes (zetasizer), Example 1. Format: physicochemical. As for the experimental part: The condensability of the nucleic acid by the peptide of the embodiment and the potential of the peptide-nucleic-acid complex were evaluated.
The peptides were each dissolved in 10 mM of HEPES (pH: 5.3) to prepare several peptide solutions having different peptide concentrations.
For the protamine, three peptide solutions were prepared to have peptide concentrations of: (1) 2.1 mg/ml, (2) 2.4 mg/ml and (3) 2.7 mg/ml. For the mHP-4, four peptide solutions were prepared to have peptide concentrations of: (4) 1.8 mg/ml, (5) 2.1 mg/ml, (6) 2.4 mg/ml and (7) 2.7 mg/ml. For the mHP-1, three peptide solutions were prepared to have peptide concentrations of: (8) 2.1 mg/ml, (9) 2.4 mg/ml and (10) 2.7 mg/ml. For the mHP-2, five peptide solutions were prepared to have peptide concentrations of: (11) 1.2 mg/ml, (12) 1.5 mg/ml, (13) 2.1 mg/ml, (14) 2.4 mg/ml and (15) 2.7 mg/ml. For the mHP-3, three peptide solutions were prepared to have peptide concentrations of: (16) 2.1 mg/ml, (17) 2.4 mg/ml and (18) 2.7 mg/ml. Further, plasmid vector (pDNA) was diluted with purified water to prepare a nucleic acid solution having a pDNA concentration of 3.0 mg/ml.
18 sets of nucleic acid solutions (90 μL) put in tubes were prepared and the peptide solutions (1) to (18) (90 μL) described above were dropped respectively therein and mixed while stirring each, to condense the nucleic acids. Thus, the peptide-nucleic-acid complexes were obtained. Then, the mixtures were each diluted with purified water to 25-fold to produce peptide-nucleic-acid solutions. Further, as references, samples containing only each respective peptide were also prepared without adding the nucleic acid solutions thereto.
The average particle diameter and Zeta potential of each of the peptide-nucleic-acid complexes were investigated using the peptide-nucleic-acid solutions. The average particle diameter and Zeta potential were measured using a zetasizer.

In series [3] the test system is plasmid. As to the kind of experiment: Amount of encapsulation of plasmid in liposome (Quant-iT PicoGreen dsDNA assay kit), Example 3. The series is classed as physicochemical. As for the experimental part: (§1) COATSOME/SS-20 (Nippon Oil & Fats), DOPE, cholesterol and DMG-PEG were dissolved into ethanol at a molar ratio of 5:3:1:0.3, to obtain a lipid solution. Two sets of lipid solutions (0.5 ml) put into tubes were prepared, and 0.5 ml of peptide-nucleic-acid solutions (8) (mHP-1) and (16) (mHP-3) of Example 1 were dropped thereto while stirring each lipid solution, thereby forming liposomes. 9 ml of 10 mM-HEPES (pH: 5.3) was added to each of the liposome solutions to make a total amount of 10 ml (each liposome solution will be referred to as “Complex” hereinafter). Further, on an assumption that the liposome is taken into an organism, and liposome solutions (which will be referred to as “HEPES replacement”) in which ethanol, which is the solvent of Complex is substituted by HEPES were produced. The HEPES replacements were produced by condensing each solution of Complex to 1.5 ml with an ultrafiltration film for 300 kDa, adding 8.5 ml of 100 mM-HEPES (pH: 7.4) to each, performing ultrafiltration, thereafter substituting the solvent with 10 mM-HEPES (pH: 7.4), and finally condensing to 0.5 ml. Further, the HEPES replacements were filtered for sterilization with a filter with a pore diameter of 0.45 μm to prepare solutions (which will be referred to as “0.45 μm” hereinafter).
(§2) The “peptide-nucleic-acid solution”, “HEPES substituent” and “0.45 micrometer”, each of which contain the protamine, mHP-1 or mHP-3 prepared as above were examined in terms of average particle diameter of liposome, Zeta potential and amount of encapsulation of plasmid. The average particle diameter and Zeta potential were measured using a zetasizer. The amount of encapsulation of plasmid was measured using a Quant-iT PicoGreen (registered trademark) dsDNA assay kit.

Series [4] can be described thus: Average particle diameter and Zeta potential of liposome (zetasizer), Example 3. The series is classed as physicochemical. As for the experimental part: as §1, §2
A short description of series [5]: Average particle diameter, polydispersity index and Zeta potential of liposome (Complex), Example 8. The series is classed as physicochemical. Here is the method: COATSOME/SS-20 (Nippon Oil & Fats), DOPE, cholesterol and DMG-PEG were dissolved into ethanol at a molar ratio of 5:3:1:0.3, to obtain a lipid solution. Five sets of 50 μL of lipid solutions put into tubes were prepared, and 50 μL of peptide-nucleic-acid solutions (1) to (4) and (7) of Example 6 were dropped thereto while stirring each lipid solution, thereby forming liposomes. 400 μL of 10 mM-HEPES (pH: 5.4) was added to each of the liposome solutions to make a total amount of 500 μL (this liposome solution will be referred to as “Complex” hereinafter).
The average particle diameter, polydispersity index and Zeta potential of liposome were investigated using the Complex. The average particle diameter, polydispersity index and Zeta potential were measured using a zetasizer.

The test system of series [6] is plasmid vector (pDNA). As to the kind of experiment: Average particle diameter, polydispersity index and Zeta potential of peptide-nucleic-acid complexes, Example 6. Format: physicochemical. To be noted: peptide-nucleic-acid complex, total peptide 0.24 mg/ml, pDNA 0.15 mg/ml. As for the experimental part:
Each of the peptides was dissolved into 10 mM-HEPES (pH: 5.4) to prepare several peptide solutions having different peptide concentrations.
For the mHP-1, one peptide solution was prepared to have a peptide concentration of (1) 0.24 mg/ml. For the mHP-2, one peptide solution was prepared to have a peptide concentration of (2) 0.24 mg/ml. For the mHP-1 and mHP-2, five peptide solutions were prepared to have a total peptide concentration of 0.24 mg/ml and mixture ratios between mHP-1 and mHP-2 of: (3) 1:1, (4) 1:3, (5) 1:5, (6) 1:7 and (7) 1:9. Meanwhile, plasmid vector (pDNA) was diluted with purified water to prepare a nucleic acid solution having a pDNA concentration of 0.15 mg/ml.
The peptide solutions (1) to (7) (100 μL) were prepared in tubes and the nucleic acid solution (200 μL) was dropped and mixed thereto while stirring each solution to condense the nucleic acids, and thus peptide-nucleic-acid complexes were obtained.
The peptide-nucleic-acid complexes were investigated in terms of average particle diameter, polydispersity index and Zeta potential using the respective peptide-nucleic-acid solutions. The average particle diameter, polydispersity index and Zeta potential were measured using a zetasizer.

[7] abbreviates: pDNA/peptide 1/0.7 (peptide conc. 2.1 mg/mL).
Where [8] appears, read: pDNA/peptide 1/0.8 (peptide conc. 2.4 mg/mL).
The mark [9] stands for this setting: pDNA/peptide 1/0.9 (peptide conc. 2.7 mg/mL).
Where [10] appears, read: peptide solely, no nucleic acid (Reference).
[11] abbreviates: pDNA/peptide 1/0.6 (peptide conc. 1.8 mg/mL).
Setting [12] is: pDNA/peptide 1/0.4 (peptide conc. 1.2 mg/mL).
Where [13] appears, read: pDNA/peptide 1/0.5 (peptide conc. 1.5 mg/mL).

“GNQSSNFGPMKGGNFGGRSSGPYGGGGQYFAKPRNQGGYGGGKCRGKVPGKYGKG [M9, third nucleic acid condensing peptide comprising M9 domain of hnRNP A1]”: the “influence on condensability or dissociation of nucleic acid by mixed mHP-1 and mHP-2 peptide solution” value in series [1] (M9 added to mHP-1:mHP-2 1:3 peptide solution (FIG. 15)) was “does not influence the condensability or dissociation”. Further, in series [1] (M9 used solely, 0.24 mg/ml, 0.8% agarose gel (FIG. 15)), the nucleic acid condensability entry is “does not exhibit nucleic acid condensability”.

With “PRRRRSSSRPIRRRRPRRASRRRRRRGGRRRR (salmon) [Protamine sequence, reference compound]”, the “Average particle diameter (zAve)” value in series [2] (setting [7]) is 136.5 nm; in series [2] (setting [8]), 135.9 nm; in series [2] (setting [9]), 139.6 nm; in series [2] (setting [10]), 711.3 nm; in series [4] (Peptide-nucleic acid solution), 167.8 nm; in series [4] (liposome, 0.45 μm filtered), 235.5 nm. For the same sequence, in series [4] (liposome, HEPES substitution), the “Average particle diameter (zAve)” value came out at 392.2 nm. The Zeta potential in series [2] (setting [7]) is given as −27.8 mV; in series [2] (setting [8]), −24.9 mV; in series [2] (setting [9]), −29.5 mV; in series [2] (setting [10]), 28.1 mV; in series [4] (Peptide-nucleic acid solution) it was −41.30 mV; in series [4] (liposome, 0.45 μm filtered), −0.72 mV. This sequence yielded a Zeta potential in series [4] (liposome, HEPES substitution) of −0.47 mV. For the same sequence, the Plasmid inclusion amount in series [3] (0.45 μm filtered) was 7.97 µg/mL; in series [3] (HEPES substitution) it was 12.68 µg/mL.

Regarding “RRRRRRGGRRRRRR (Comperative example of nucleic acid condensing peptide) [mHP-4]”, the “Average particle diameter (zAve)” value in series [2] (setting [11]) came out at 130.9 nm; in series [2] (setting [7]), 141.2 nm; in series [2] (setting [8]) it was 323.4 nm; in series [2] (setting [9]), 212.2 nm; in series [2] (setting [10]), 1083.0 nm. Besides, the Zeta potential in series [2] (setting [11]) is −23.8 mV; in series [2] (setting [7]) it was −30.7 mV; in series [2] (setting [8]) it was 28.6 mV; in series [2] (setting [9]), 33.0 mV; in series [2] (setting [10]), 39.7 mV.

As to “RRRRRRYYRQRQRGGRRRRRR (Comperative example of nucleic acid condensing peptide) [mHP-2]”, the “Average particle diameter (zAve)” value in series [2] (setting [12]) turned out to be 141.8 nm; in series [2] (setting [13]), 139.8 nm; in series [2] (setting [7]), 184.0 nm; in series [2] (setting [8]) it was 159.0 nm; in series [2] (setting [9]), 158.6 nm; in series [2] (setting [10]), 321.0 nm. Further, the entries for the “Average particle diameter (zAve)” value in series [5] and in series [6] were 250.0 nm and 169.1 nm, respectively. Further, the Zeta potential was −27.7 mV in series [2] (setting [12]); −17.7 mV in series [2] (setting [13]); 27.3 mV in series [2] (setting [7]); 21.6 mV in series [2] (setting [8]); 34.2 mV in series [2] (setting [9]); 50.5 mV in series [2] (setting [10]). The Zeta potential in series [5] is on record as 36.2 mV; in series [6], −34.1 mV. For the same sequence, the “Polydispersity index (PDI)” value in series [5] amounted to 0.092; in series [6] it was 0.285.
